Experimental data published in PMC9100651 (2022).

Biological target: GABARAP (Homo sapiens, UniProt O95166)
Assay: MST, SPR

Sequence of GABARAP (O95166 1-116): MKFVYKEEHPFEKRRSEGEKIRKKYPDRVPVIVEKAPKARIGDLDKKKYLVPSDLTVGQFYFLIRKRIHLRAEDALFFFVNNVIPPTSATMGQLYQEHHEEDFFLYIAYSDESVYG

DATYTWEHLAWP [K1 peptide] was tested, and the Kd was about 3000 nM.
